# In the nanobody polyreactivity screen of Harvey et al. (2022):
# Test: yeast display, Sf9 membrane polyspecificity reagent, FACS + sequencing; frameworks hold sequencing errors
# Procedure, shortened: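 Using colony PCR, genes from sorted yeast display clones were amplified, then sequenced on MiSeq at 2 × 250 and filtered by CDR length. The clones had been stained with 10% biotinylated, detergent-solubilized Sf9 membrane reagent for 1 hour at 4 °C and sorted by FACS into low and high (top ~1%) gates on anti-HA and streptavidin fluorescence. Polyreactivity labels come from the gate of origin.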
row,Sequence,polyreactivity (PSR sort gate)
1,QFQLVESVGCLVQAGGSLRLSCAASGILFSWYAMGWYRQPPGKERELVAAISKGGGSTYYADSVKGRFTISRDNAKNTVYLQMNSLIPEDTAVYYCAADSSYGYGYWGQGTQVTVSS,high polyreactivity
2,QFQLVESVGGLVQAGGSLRLSCAASGNIFPAYAMGWYRQAPGKERELVAAISKSGGRTYYADSVKGRFTISRDNAKNTVYLQMNSQKPEDTAVYYALLTVLRAVPYSVRYDYCGQGTQVTVSS,high polyreactivity
3,QFQLVESVGGLVQAGGSLRLSCAASGSTFVRNELGWYRQAPGKERELVAANSVDGSSTYYADSVKGRFTISRDNAKNTVYLQINSLKPEDTAVYYCNADWDYRDFYDITYDYWGQGTQVTVSS,low polyreactivity
4,QFQLVESVGGLVQAGGSLRLSCAASGTTIPSYAMGWYRQAPGKERELVASITYSDGTTRYADSVKGRFTISRDNAKNTVYLQMNSLKPEDTAVYYCNAVYYREGMDYWGQGTQVTVSS,low polyreactivity
5,QFQLVESVVGLVQAGGSLRLSCAASGTTFGVNDMRWYRQAPGKEREFVADITTSGGSTYYADSVKGRFTISRDNAKNTVYLQMNSLKPEDTAVYYCAADLWPFEHDDYWGQGTQVTVSS,low polyreactivity
6,QFQLVETGGGLVQAGGSLRLSCAASGRTFRFNAMGWYRQAPRKEREFVAAITSGGGTYYADSVKGRFTISRDNAKNPVYLQMNCLKPEDTAVYYCAAPRQYYLMVYWGQGTQVTVSS,low polyreactivity
7,QFQRVESGGGLVQAGGSLRLSSAASASIFSVYTMGWSRQAPGKERELDAAISTGGGSKYYADSVKGRFTISRDNAKNTVYLQMKSLKPEDTSVYYCGTDYGWPPSYWYDSFGQGTQVTVSS,low polyreactivity
8,QGHLVESLGGLVQAGGSLRLSCAASGRIIGVYAMGWSRQAPGKERELVAAISEGGGSTNYADSVKGRFTISRDNSKNTVYLQMNSLKPEDTAVYYCNADADEYRDYHDYDYWGQGTQVTVSS,low polyreactivity
9,QGPHVESGGGLVQAGGSLRLSCAASGSTFYNYAMGWYIQAPGKEREFVATISFSGGSTYYADSVKGRFTISRDNAKNTVYLQMNSLKPEETAVYYCAARALTRKATGYYLTDYWGQGTQVTVSS,high polyreactivity
10,QGQHVESGGGLVQAGGSLRLSCAASGFTFAHNAMGWDRQAPGKETDFVAAITSRGGSTYYADSVKGRFTISRDNAKNSVYFQMYSPNPEDTAVYYCAADDYIYTVYSYTYQYWGQGTHVTVSS,low polyreactivity
11,QGQHVESGVGLVQAGGSLRLSCAASVFMFESNAMGWYRQAPGKERELVAAITSAGRTYYADSVKGRFTISRDNAKNTVYLQMNSLKPEETAVYYCNAPRSRYRYDYWGQGTQVTVSS,high polyreactivity
12,QGQLEESCGGLVQAGARLRISCEASGRTFRFYTMGGYRPAPGKEMELVAAISSNTGTTYADSVKGRFTISRDNAKNTVYLQMNSLKQEDTAVFFCAARVRRQYYNRPYYYWGQGTQVTVSS,high polyreactivity
13,QGQLEESGGGLVQAGGSLRLSCAASGRTFGPYAMGRYRQAPGKERELVAAIRSAGSTYYADSVKGRFTISRDNAKNTVYLQMISLKPEDTAVYYCADDIARHLTGFAYYRLDYWGQGTQVTVSS,low polyreactivity
14,QGQLEESGGGLVQAGGSLRLSCAASGSIFTLYAMGWYRQAPGKERELVAAITRSGGSTYYADSVKGRFTISRDNAKNTVYLQMNSLKPEDTAVYYCAADKAPYSTEGDYWGQGTQVTVSS,high polyreactivity
15,QGQLEESGGGLVQAGGSLRLSCPASGYILGGNAMGWYRQAPGKERELVARIRVSSGSTYADSVKGRFTISRDNAKNTVYLQMNSLKPEDTAVYYCAASISSRYRYTAYDYWGQGTQVTVSS,high polyreactivity
16,QGQLGDSGGGLVQAGGSLRLSCAASGLTFWGKVMGWSRPAPGKERELVAAITSGGSTYYADSVKGRFTISRDNAKNTVFLQMNSQKPEDTAVYYCATAFYYSYSEYYYWGQGTQVTVSS,high polyreactivity
17,QGQLLESGGGLVQAGGSLRLSCAASGRTFRSYAMGWYRQAPGKESELVAASSQRGGSSFYADSVKGRFTISRDNAKNSVYLQMNSLKPEDTAVYYCANPVRSGYDYWGQGSQVTVSS,high polyreactivity
18,QGQLVDSGGGLVQAAGSLRLSCDASGRTFVYNDMGWYRQAPGKERELVATISVSGCSTYYADSVKGRFTISRDNAKNTVYLQMISLKPEDTAVYYCAARRTWYEDHDYWGQGTQVTVSS,low polyreactivity
19,QGQLVDSGGGLVQAGGSLRLSCAASGSIVRPNAMGWYRPAPGKEREFVAAITSSSGPTYYADSVKGRFTISRDNAKNTVYLQMNSLKPEDTAVYYCAAKYTSRSYKYDYWGHGTQVTVSS,high polyreactivity
20,QGQLVESCGGLVQAGGSLRLSCAASGRTFYYYAMGWYRQAPRKERELVAAMTSGGRTNSADSVKGRFTSSRDKATNTDSLQMNSLKPEDTAVYYCAKPPYSQYEFDYWGQGTQVTVSS,high polyreactivity
21,QGQLVESGGALVQAGGSLRLICAASGRTFAAYSMGWYRQAPGKERELVAAISIGGSTNYADSVKVRFTISRDNAKNSVYLQMNSLKPEDSAVYYCAAPGRRYLRARIRYEYWGQGTQLTVSS,high polyreactivity
22,QGQLVESGGALVQAGGSLRLSCAASGRILRYYAMGWNRQAPGKERELVAVITSSDGSTYYADSVKGRFTISRDNAKNTVYLQQNSLKPEDTAVDYCAAAPLWRVASWWDPYRRYDYWGQGTQVTVSS,low polyreactivity

row,Sequence,polyreactivity (PSR sort gate)
1,QGQLVESGGCLVQAGGSLRLSCDASGFIFTSYAMGWYRQAPGQEWELVAVITASGGSTYYADSVKGRFTISRDNAKNTVYLQMNSLKPEDTAVYYCNRYYQSYYGWTGPYGYWGQGTQVTVSS,high polyreactivity
2,QGQLVESGGGIVQAGVSLRLSCAASGSIFTANAMGWYRQAPGKVRELVAAISRSGGRTYYADSVKGRFTISRDNAKNTVYLQMNSLNPEDTAVYYCNVGSFNTSGYDYWGQGTQVTVSS,high polyreactivity
3,QGQLVESGGGLGQAGGSLRLSCAASGSTSGIYAMGWYRQAPGKERELVAAIDTSGGSSYADSVKGRFTISRDNAKHTVYLQMNSLKPEDTAVYYCAKPFCSNSWSHGYWGQGTQVTVSS,low polyreactivity
4,QGQLVESGGGLVQAGGSLRFSCAASGRIFSVYDMGWYRQAPGTERELVAAIDTSDGSTNYADSVKGRFTISRDNAKNSVYLQMNSLKPEDTAVYYCNATDSYVPFDYWGQGTQVTVSS,low polyreactivity
5,QGQLVESGGGLVQAGGSLRLRCAASGFTFAVNTMGWYRQAPVKERELVAAITASGGSTHYADSVKGRFTISRDNAKNNVYLQMNSLKPEDTAVYYCAARPRLYQYYYWGQGTQVTVSS,high polyreactivity
6,QGQLVESGGGLVQAGGSLRLSCAAAGYTLGVNAMGWSRQAPGKERELVAAINYIDTRTYYAASVKGRFTISRDNAKNTVYLQMNSLNPEDTAVYYCAARPYVPWVKRYYYWGQGTQVTVSS,low polyreactivity
7,QGQLVESGGGLVQAGGSLRLSCAASGFTFSPYAMGSYRQAPGKERELVAVISGGGSTYYADSVKGRFTISRDNAKNTVYLQMNSLKPEDTAVYYCAKRFYRSYYWGQGTQVTVSS,high polyreactivity
8,QGQLVESGGGLVQAGGSLRLSCAASGGIFGNYAMGGYRQAPGKERELVAVIDSSDGSTHYADSVKGRFSISRDNAKTTVYLQINSLKAEDTAVYYCATLGFWNYWTFDYWGQGTQVTVSS,low polyreactivity
9,QGQLVESGGGLVQAGGSLRLSCAASGLTFKGYAMGWYRQAPGKERELVAAITWDTGSTYYADSVKGRFTISRDNAKNTVYLQMNSLKPEDTAVYYCAAVGSTTTGVRRRGYWGQGTQVTVSS,high polyreactivity
10,QGQLVESGGGLVQAGGSLRLSCAASGNTFNVYAMGWYRQAPGKARELVAAITLSGGSTYYADSVKGRFTISRDNSKNTVYLQMNSLKPEDTAFYYCNAEEDGTDYDYWGQGTQVTVSS,low polyreactivity
11,QGQLVESGGGLVQAGGSLRLSCAASGRIFTYYAMGWYRQAPGKERELVAAISWSGGSTYYADSVKGRFTISRDNAKNTVYLQMNSLKPEDTAVYYCAAVGYAGLPYGLRPNNSGYWGQGTQVTVSS,low polyreactivity
12,QGQLVESGGGLVQAGGSLRLSCAASGRTFGINAMGWYRQAPGKERELVAVISFGDGGTYYADSVKGRFTISRDNAKNTVYLQMNSLKPEDTAVYYCATDYQSTSVWGGHFVINPYDYWGQGTQVTVSS,low polyreactivity
13,QGQLVESGGGLVQAGGSLRLSCAASGRTFGYYAMRWYRQARGKERELVAVITRSGGTTYYADSVKGRFTISRDNAKNTVYLQMKSLKPEDTAVYYCHPAYYTGMYWGQGTQVTVSS,high polyreactivity
14,QGQLVESGGGLVQAGGSLRLSCAASGRTFRGNTMGWYRQAPGKERELVATISSRSSSTYYADSVKGRFTISRDNAKNTVYLQMHSLKPEDTAVYYCAVTNPLVRSGYSRYFGRYDYWGQGTQVTVSS,high polyreactivity
15,QGQLVESGGGLVQAGGSLRLSCAASGSIFDTYAMGWYRQAPGKERELVAAITRRAGSTYYADSVKGRFTISRDHAKNTLYFQMNSLKPEETSVYYCAAGYDRYPGGIDEYWGQGTQVTVSS,low polyreactivity
16,QGQLVESGGGLVQAGGSLRLSCAASGSIVFYYGMGWYRQAPGKERELVAAITWSGDSPYDADSVKGRFTISRDNAKNTVYLQLNSLKPEDTAVYYCNADQTSYYYPGNYDYWGQGTQVTVSS,high polyreactivity
17,QGQLVESGGGLVQAGGSLRLSCAASGSMFYRYAMGWYRQAPGKERELVAVITSAGGTHYADSVKGRFTISRDNAKNTVYLQMTSLKPEDTAVDYCARRGYYYDYWGEGTQVTVSS,high polyreactivity
18,QGQLVESGGGLVQAGGSLRLSCAASGSTFAYYAMGWYIPAPGKERELVAAITSRGGSTYYADSVKGRFTISRDNAKNTVYLQMNSLKPEDTAVYYCAAVTRNQGSYRYYYWGQGTQVTVSS,high polyreactivity
19,QGQLVESGGGLVQAGGSLRLSCAASGSTFAYYAMGWYRQAPGKERELVAAINTTTGSTFYADSVKGRFTISRDNAKNTVYLQMNSLKPEDTAGYYCAAGVTGPSDDYDYWGQGTQVTVSS,low polyreactivity
20,QGQLVESGGGLVQAGGSLRLSCAASGSTFPPYRMGWYRQAPGKERELVAAITWRGGRTYYADSVKGRFTISRDNAKNTVYLQMNSLKREDTAVYYCAADYPYQYGRYAGSPGAGRYYWGQGTQVTVSS,high polyreactivity
21,QGQLVESGGGLVQAGGSLRLSCAPSGFIFKFYAMGWYRQAPGKESELVAAITSSGGSTNYADSVKGRFTISRDNAKNTVYLQMISLKPEDTAVSYCAAQFPGVYYYIYDYWGQGTQVTVSS,high polyreactivity
